Measurements published in paper PMC7164261.

Key:
[1] = target: T1, Flag-TMIGD1/WT (human TMIGD1, AA 30-262) stably expressed in MDCKII-TetOFF cells (human) (UniProt Q6UXZ0)
T1 sequence: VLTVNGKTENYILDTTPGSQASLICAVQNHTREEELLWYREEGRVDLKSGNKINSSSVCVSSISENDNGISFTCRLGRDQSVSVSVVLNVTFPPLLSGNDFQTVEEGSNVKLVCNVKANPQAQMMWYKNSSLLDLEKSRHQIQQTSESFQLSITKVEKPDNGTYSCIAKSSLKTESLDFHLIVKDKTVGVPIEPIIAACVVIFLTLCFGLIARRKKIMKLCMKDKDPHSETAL

[2] = target: T2, Flag-ΔD1-TMIGD1 (human TMIGD1 lacking the membrane-distal Ig-like domain, AA 115-262) (human) (UniProt Q6UXZ0)
T2 sequence: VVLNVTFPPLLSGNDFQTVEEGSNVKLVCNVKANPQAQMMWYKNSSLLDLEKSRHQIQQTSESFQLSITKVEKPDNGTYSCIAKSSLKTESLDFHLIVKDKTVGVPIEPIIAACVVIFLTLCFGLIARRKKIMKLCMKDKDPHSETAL

recruitment of TMIGD1/WT from cytoplasmic compartments to mitochondria in Myc-SYNJ2BP-expressing MDCKII-TetOFF cells (immunofluorescence microscopy, fraction of cells) [1]: 75%
recruitment of ΔD1-TMIGD1 from cell-cell contacts to mitochondria in Myc-SYNJ2BP-expressing MDCKII-TetOFF cells (immunofluorescence microscopy, fraction of cells) [2]: > 90%
B1: Myc-hSYNJ2BP (human SYNJ2BP full length, AA 2-145) (natural protein)
chain: NGRVDYLVTEEEINLTRGPSGLGFNIVGGTDQQYVSNDSGIYVSRIKENGAAALDGRLQEGDKILSVNGQDLKNLLHQDAVDLFRNAGYAVSLRVQHRLQVQNGPIGHRGEGDPSGIPIFMVLVPVFALTMVAAWAFMRYRQQL
